Reference: article PMC11262565

Target: biotinylated human IgG1 Fc protein (IG1-H8213, ACROBiosystems) (human)
Experiment: BLI

Substance | Kd [nM]
Fc-ARM A-Z (HER2-specific affibody Z_(HER2:342) fused to a single Z domain) (designed binder) | 7.8
Fc-ARM A-ZZ (HER2-specific affibody Z_(HER2:342) fused to double Z domains) (designed binder) | 0.28
